This note sets out measurements from patent publication US20080102065A1 (published 2008).

What is called Kd is the concentration at which binding is half-saturated. The term koff denotes a measure of how fast the partners let go of each other. The term kon denotes a measure of how fast the partners come together.

The target of assay [1] is T1, biotinylated mouse EpoR-Fc protein (muEpoR-Fc) (mouse, UniProt P14753 25-249, limits assumed, biotinylated).
T1 construct: also called mouse EpoR (muEpoR); not shown: Fc part
T1 sequence (looked up): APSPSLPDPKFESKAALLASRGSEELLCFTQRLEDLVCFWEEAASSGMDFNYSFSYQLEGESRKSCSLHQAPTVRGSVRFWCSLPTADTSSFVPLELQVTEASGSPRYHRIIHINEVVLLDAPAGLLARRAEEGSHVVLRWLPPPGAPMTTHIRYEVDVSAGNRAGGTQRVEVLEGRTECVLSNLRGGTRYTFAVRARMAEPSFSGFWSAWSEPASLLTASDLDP
In words: ELISA, antibody coated at 1 µg/ml, biotinylated muEpoR-Fc at 5 µg/ml, streptavidin-HRP. A general note: ELISA stands for enzyme-linked immunosorbent assay.

The target of assay [2] is T2, huEpoR protein (soluble human erythropoietin receptor) (human, UniProt P19235 25-250, limits assumed).
T2 construct: also called soluble huEpoR; biotinylated huEpoR
T2 sequence (looked up): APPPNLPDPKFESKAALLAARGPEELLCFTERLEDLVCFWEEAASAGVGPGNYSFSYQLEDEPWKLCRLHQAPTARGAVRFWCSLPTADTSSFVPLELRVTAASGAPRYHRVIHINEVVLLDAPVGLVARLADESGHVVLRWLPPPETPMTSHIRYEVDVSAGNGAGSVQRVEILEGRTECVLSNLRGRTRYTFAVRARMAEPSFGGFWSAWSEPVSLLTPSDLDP
In words: SPR, Biacore T100; scFv-Fc captured on anti-human IgG Fc CM5 chip, EpoR as analyte; 1:1 fit.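 Also: measured at 25 °C in HBS-EP buffer with 0.1 mg/ml BSA, flowed at 50 µl/min, 1 min association then dissociation (10 min human, 5 min cyno EpoR).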 On the technique in general: Surface plasmon resonance follows binding to a sensor surface in real time, without labels.

Assay [3] deals with T3, cynomolgus monkey EpoR (cynoEpoR) (cynomolgus monkey, UniProt A0A2K5WKK4 25-250).
T3 construct: Soluble protein (coated in ELISA, analyte in SPR)
T3 sequence: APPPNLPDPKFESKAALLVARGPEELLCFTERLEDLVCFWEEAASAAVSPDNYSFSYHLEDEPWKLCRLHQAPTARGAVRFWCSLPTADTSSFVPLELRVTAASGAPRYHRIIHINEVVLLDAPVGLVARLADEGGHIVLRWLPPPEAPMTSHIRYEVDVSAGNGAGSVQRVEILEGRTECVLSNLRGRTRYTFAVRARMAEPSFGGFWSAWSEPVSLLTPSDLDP
Put plainly: SPR, Biacore T100; scFv-Fc captured on anti-human IgG Fc CM5 chip, EpoR as analyte; steady-state fit; steady-state fit; cyno EpoR.

A further assay has as its target T4, mouse EpoR (muEpoR) (mouse, UniProt P14753 25-249, limits assumed).
T4 sequence (looked up): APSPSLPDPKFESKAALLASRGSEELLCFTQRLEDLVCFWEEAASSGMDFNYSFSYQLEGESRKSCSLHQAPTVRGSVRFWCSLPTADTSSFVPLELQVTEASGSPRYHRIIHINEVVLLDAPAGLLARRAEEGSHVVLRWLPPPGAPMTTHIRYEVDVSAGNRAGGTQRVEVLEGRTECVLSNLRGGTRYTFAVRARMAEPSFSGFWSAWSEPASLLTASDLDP
In words: ELISA on coated muEpoR, scFv-Fc at 5 µg/ml (Example 17).

In assay [4] the target is T5, huEpoR expressed on the cell surface (UT-7 cells) (human, UniProt P19235 25-508).
T5 sequence (looked up): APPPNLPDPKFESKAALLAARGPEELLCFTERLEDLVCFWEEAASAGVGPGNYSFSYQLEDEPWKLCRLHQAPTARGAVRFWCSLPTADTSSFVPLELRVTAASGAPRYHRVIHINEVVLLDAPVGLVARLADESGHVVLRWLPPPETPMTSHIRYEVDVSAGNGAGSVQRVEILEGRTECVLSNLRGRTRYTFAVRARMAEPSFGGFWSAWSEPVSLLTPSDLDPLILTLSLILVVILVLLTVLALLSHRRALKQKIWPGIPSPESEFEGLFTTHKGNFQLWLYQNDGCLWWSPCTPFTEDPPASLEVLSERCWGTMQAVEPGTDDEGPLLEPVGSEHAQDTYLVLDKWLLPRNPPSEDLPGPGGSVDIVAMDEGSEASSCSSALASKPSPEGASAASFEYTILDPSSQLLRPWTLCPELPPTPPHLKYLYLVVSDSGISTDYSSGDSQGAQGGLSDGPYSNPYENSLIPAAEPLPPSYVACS
Put plainly: cell-based or functional assay.

B1: clone 10 IgG2 protein (antibody, V domains shown)
VH: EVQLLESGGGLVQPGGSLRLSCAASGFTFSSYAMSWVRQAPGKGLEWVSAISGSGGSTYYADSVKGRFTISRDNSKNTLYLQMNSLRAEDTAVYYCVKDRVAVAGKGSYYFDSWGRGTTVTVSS
VL: QSVLTQPPSVSEAPGQRVTIACSGSSSNIGNNAVSWYQQLPGKAPTLLIYYDNLLPSGVSDRFSGSKSGTSASLAISGLQSEDEADYYCAAWDDSLNDWVFGGGTKVTVL
notes: Human IgG2 (VH in an IgG2 heavy chain expression vector; light chain constant type matches the variable light chain isotype)
As to B1, the binding result in assay [1] is reported as “binds”.

B2: clone 30 IgG2 protein (antibody, V domains shown)
VH: QVQLQESGPGLVKPSQTLSLTCAISGDSVSSNSAAWNWIRQSPSRGLEWLGRTYYRSKWYNDYAVSVKSRMTIKADTSKNQFSLQLNSVTPEDTAVYYCARDEGPLDYWGQGTLVTVSA
VL: QAVLTQPSSVSGAPGQRVTISCTGSSSNLGTGYDVHWYQQLPGTAPKLLIYGNSNRPSGVPDRFSGSKSDTSGLLAITGLQAEDEATYYCQSYDFSLSAMVFGGGTKVTVL
notes: as for B1
Take B2: the binding result in assay [1] is recorded as “binds”.

B3: Mxb 34 (clone 34 scFv-Fc protein) (Fc fusion)
VH: QVQLQQSGAEVKKPGASVKVSCKASGYTFSGYYMHWVRQAPGQGLEWMGWINPNSGSTNYAQKFLGRVTMTRDTSISTAYMELSSLRSDDTAVYYCARGHSGDYFDYWGQGTLVTVSA
VL: EIVLTQSPSSLSASVGDRVTITCRASQSVSSWLAWYQQRPGQAPKLLIYAARLRGGGPSRFSGSGSGTEFTLTISSLQPEDFATYFCQQSYSTPISFGGGTKLEIK
notes: Tested as scFv-Fc (maxibody) with an Fc derived from human IgG1
In assay [2], B3 showed a dissociation constant Kd of 378 nM, a koff of 0.203 s⁻¹ and a kon of 536000 M⁻¹ s⁻¹. This molecule returned a Kd in assay [3] of 5810 nM. For the same molecule, the binding result with mouse EpoR (muEpoR) is reported as “no binding (tested: 5 µg/ml)”. Further, in assay [4], the “Average EC50 (nM), UT-7-luciferase (STAT5 reporter) assay” value was found to be 0.11 nM and the “Ratio (EC50 of Epo / EC50 of the scFv-Fc), UT-7-luciferase assay” value amounted to 0.088.

B4: Mxb 318 (clone 318 scFv-Fc protein) (Fc fusion)
VH: QVQLVESGGGLVQPGGSLRLSCAVSGFTFSKYWMTWVRQAPGKGLEWVANIKPDGSEKYYVESVKGRFTISRDNAKNSVYLQMNSVRAEDTAVYYCARVSRGGSFSDWGQGTLVTVSS
VL: QSVLTQPPSASGSPGQSVTISCTGTSSDVGGYNYVSWYQQHPGRAPKLIIYEVSKRPSGVPDRFSGSKSGNTASLTVSGLQADDEADYYCNSYAGSIYVFGSGTKVTVL
notes: as for B3
Turning to B4, in assay [2], the Kd was found to be 847 nM, the koff was 0.558 s⁻¹ and the kon was 659000 M⁻¹ s⁻¹. Besides, binding in assay [3] was put at a Kd of 4890 nM. Also, in the assay with mouse EpoR (muEpoR), the binding result is reported as “no binding (tested: 5 µg/ml)”. In assay [4], the “Average EC50 (nM), UT-7-luciferase (STAT5 reporter) assay” value turned out to be 0.0154 nM and the “Ratio (EC50 of Epo / EC50 of the scFv-Fc), UT-7-luciferase assay” value is 0.623.
